Article PMC3564486 (Developmental cell, 2011)
Substitutions are numbered along the chain they refer to. One block for each binder: values may come before it.

Tests used:
[1] = molecular target: T1, LRP6 ectodomain (LRP6ECD) (human, UniProt O75581 20-1361); experiment: SEC-MALS
T1 sequence (looked up): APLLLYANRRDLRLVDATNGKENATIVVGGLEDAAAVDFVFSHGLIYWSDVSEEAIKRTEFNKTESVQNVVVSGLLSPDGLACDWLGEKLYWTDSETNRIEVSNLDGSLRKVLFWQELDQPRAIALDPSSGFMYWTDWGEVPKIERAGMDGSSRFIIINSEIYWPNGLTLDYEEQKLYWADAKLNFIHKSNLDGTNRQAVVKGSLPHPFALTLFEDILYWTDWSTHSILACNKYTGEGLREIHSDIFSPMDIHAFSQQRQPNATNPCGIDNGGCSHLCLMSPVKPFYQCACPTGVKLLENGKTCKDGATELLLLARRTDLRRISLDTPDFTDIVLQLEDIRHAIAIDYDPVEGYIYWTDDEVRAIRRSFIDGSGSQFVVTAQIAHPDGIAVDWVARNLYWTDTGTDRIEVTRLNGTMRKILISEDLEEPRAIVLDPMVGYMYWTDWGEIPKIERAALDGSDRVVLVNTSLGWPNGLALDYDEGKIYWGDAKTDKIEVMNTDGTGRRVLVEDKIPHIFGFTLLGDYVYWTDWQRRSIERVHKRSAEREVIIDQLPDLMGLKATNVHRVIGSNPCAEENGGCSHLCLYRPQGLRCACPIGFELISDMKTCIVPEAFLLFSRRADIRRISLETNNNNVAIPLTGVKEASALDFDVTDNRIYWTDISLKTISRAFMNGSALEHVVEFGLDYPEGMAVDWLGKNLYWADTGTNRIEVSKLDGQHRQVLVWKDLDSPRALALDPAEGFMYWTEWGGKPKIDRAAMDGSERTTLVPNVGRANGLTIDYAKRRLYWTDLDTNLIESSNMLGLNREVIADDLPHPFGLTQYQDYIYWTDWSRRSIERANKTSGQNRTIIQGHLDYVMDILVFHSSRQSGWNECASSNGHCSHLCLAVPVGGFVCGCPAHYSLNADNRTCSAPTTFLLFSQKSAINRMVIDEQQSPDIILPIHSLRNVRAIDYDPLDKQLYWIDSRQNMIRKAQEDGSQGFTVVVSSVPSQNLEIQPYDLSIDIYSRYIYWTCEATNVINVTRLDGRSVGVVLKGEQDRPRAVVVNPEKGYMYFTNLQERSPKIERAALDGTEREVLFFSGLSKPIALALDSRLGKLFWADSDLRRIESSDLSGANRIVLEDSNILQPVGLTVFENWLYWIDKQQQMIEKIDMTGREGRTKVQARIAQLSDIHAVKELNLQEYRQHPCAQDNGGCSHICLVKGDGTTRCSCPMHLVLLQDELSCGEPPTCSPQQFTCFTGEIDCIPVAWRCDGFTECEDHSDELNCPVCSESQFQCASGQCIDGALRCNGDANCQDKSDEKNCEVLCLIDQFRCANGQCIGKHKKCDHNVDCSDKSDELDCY

[2] = molecular target: T2, LRP6_(P3E3P4E4) Y706A (human, UniProt O75581 629-1244, Y706A); experiment: SPR
T2 sequence (looked up): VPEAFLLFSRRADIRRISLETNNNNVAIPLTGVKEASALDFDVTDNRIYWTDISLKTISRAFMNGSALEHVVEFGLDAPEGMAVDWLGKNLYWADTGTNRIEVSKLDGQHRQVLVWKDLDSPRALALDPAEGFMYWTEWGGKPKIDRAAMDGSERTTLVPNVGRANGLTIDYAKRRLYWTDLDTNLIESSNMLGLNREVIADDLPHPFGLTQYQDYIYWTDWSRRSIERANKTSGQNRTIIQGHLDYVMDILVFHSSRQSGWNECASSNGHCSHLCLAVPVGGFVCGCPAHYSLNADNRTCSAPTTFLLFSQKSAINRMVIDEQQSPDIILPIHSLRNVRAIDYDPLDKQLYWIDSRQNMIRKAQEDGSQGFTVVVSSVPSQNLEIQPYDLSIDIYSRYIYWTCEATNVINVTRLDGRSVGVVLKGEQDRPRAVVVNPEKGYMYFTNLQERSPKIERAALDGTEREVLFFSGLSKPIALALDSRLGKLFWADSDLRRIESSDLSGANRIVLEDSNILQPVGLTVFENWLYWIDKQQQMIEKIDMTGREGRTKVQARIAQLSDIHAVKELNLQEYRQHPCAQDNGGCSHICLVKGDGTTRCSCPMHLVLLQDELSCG

[3] = molecular target: T3, LRP6_(P3E3P4E4), wild type (human, UniProt O75581 629-1244); experiment: SPR
T3 sequence (looked up): T2 sequence (looked up) with A78Y

[4] = molecular target: T4, LRP6_(P3E3P4E4) N813A (human, UniProt O75581 629-1244, N813A); experiment: SPR
T4 sequence (looked up): T2 sequence (looked up) with A78Y, N185A

[5] = molecular target: T5, LRP6_(P3E3P4E4) E708A (human, UniProt O75581 629-1244, E708A); experiment: SPR
T5 sequence (looked up): T2 sequence (looked up) with A78Y, E80A

[6] = molecular target: T6, LRP6_(P3E3P4E4) W767A (human, UniProt O75581 629-1244, W767A); experiment: SPR
T6 sequence (looked up): T2 sequence (looked up) with A78Y, W139A

- stoichiometry N [1]: 1
B1: human Mesd with an internal Flag tag (co-expressed with LRP6ECD) (natural protein, UniProt Q14696-1 34-234, looked up)
chain: AEGSPGTPDESTPPPRKKKKDIRDYNDADMARLLEQWEKDDDIEEGDLPEHKRPSAPVDFSKIDPSKPESILKMTKKGKTLMMFVTVSGSPTEKETEEITSLWQGSLFNANYDVQRFIVGSDRAIFMLRDGSYAWEIKDFLVGQDRCADVTLEGQVYPGKGGGSKEKNKTKQDKGKKKKEGDLKSRSSKEENRAGNKREDL

- binding result [2]: binds
- Kd [3]: 58 nM
- binding result [4]: binds
- binding result [5]: binds
- binding result [6]: binds
B2: Dickkopf 1 (Dkk1) (ligand, human, UniProt O94907 32-266, looked up)
chain: TLNSVLNSNAIKNLPPPLGGAAGHPGSAVSAAPGILYPGGNKYQTIDNYQPYPCAEDEECGTDEYCASPTRGGDAGVQICLACRKRRKRCMRHAMCCPGNYCKNGICVSSDQNHFRGEIEETITESFGNDHSTLDGYSRRTTLSSKMYHTKGQEGSVCLRSSDCASGLCCARHFWSKICKPVLKEGQVCTKHRRKGSHGLEIFQRCYCGEGLSCRIQKDHHQASNSSRLHTCQRH
